Substitutions are numbered along the chain they refer to.
B1: PRT-589 (protein)
chain: MRNQTTTYSEVTPSHITSVWTKGVTPPEQFIQGEDVFHAPYIANQGWYDITKTFNGKDDLLCGAATAGNMLHWWFDQNKEQIENYLKKHPEKQKINFNNEEMFDVREAINTKDSQTDSALFSYFKDKAFPYLSAKHLGVFPDHVIDMFINGYRLSLTNHDKTDVNRGTKDPRGGIFDAVFTRGDQSKLLTARHDFKNKTLKEISDLIKQELTEGKALGLSHTYANVRINHVINLWGADFDAEGNLEAIYVTDSDSNASIGMKKYYVGVNSAGKVAISAKKIEGDNIGAQVLGLFTLSTGQDIWQQTNLEHHHHHH
B2: PRT-27 (protein)
chain: MANQEIRYSEVTPYHVTSVWTKGVTPPANFTQGEDVFHAPYVANQGWYDITKTFNGKDDLLCGAATAGNMLHWWFDQNKDQIKRYLEEHPEKQKINFNGEQMFDVKEAIDTKNHQTDSKLFEYFKEKAFPYLSTKHLGVFPDHVIDMFINGYRLSLTNHGPTPVKEGSKDPRGGIFDAVFTRGDQSKLLTSRHDFKEKNLKEISDLIKKELTEGKALGLSHTYANVRINHVINLWGADFDSNGNLEAIYVTDSDSNASIGMKKYFVGVNSAGKVAISAKEIKEDNIGAQVLGLFTLSTGQDSWNQTN
B3: PRT-31 (protein)
chain: B2 chain with K83E, T116L, E246K
B4: PRT-1 (protein)
chain: B2 chain with T116L, E246K
B5: PRT-34 (protein)
chain: B2 chain with H114S, T116L, E246K
B6: PRT-33 (protein)
chain: B2 chain with E87K, T116L, E246K
B7: PRT-39 (protein)
chain: B2 chain with T116L, K209Q, E246K
B8: PRT-28 (protein)
chain: B2 chain with N113D, T116L, I145L, N199T, E246K
B9: PRT-32 (protein)
chain: B2 chain with T116L, E246K, S302I
B10: PRT-35 (protein)
chain: B2 chain with N113D, T116L, E246K
B11: PRT-37 (protein)
chain: B2 chain with T116L, N199T, E246K
B12: PRT-38 (protein)
chain: B2 chain with T116L
B13: PRT-29 (protein)
chain: B2 chain with T116L, K209Q, K282E
B14: PRT-36 (protein)
chain: B2 chain with E246K
B15: PRT-30 (protein)
chain: B2 chain with T116L, I145L, N199T, N242E, E246K
B16: PRT-529 (protein)
chain: MANQEIRYSEETPKTITSVWTKGVTPPTDFIKNEDVLHAPYIANQGWYDITKTFNGKDDLLCGAATAGNMLHWWFDQNKEEIENYLKKHPEKQKINFNGEQMFDVKEAIDTKDSQTDSALFEYFKDKAFPNLSTKHLGVMPDLVLDMFINGYYLSLGKHGPTPVKRGTKDPRGGIFDAVFTRGDQTKLLTARHDFKEKTLNEISDLIKQELTEGKALALSHTYANVRINHVINLWGADFNSEGNLEAIYVTDSDSNASIGMKKYYVGVNAAGKVAISAKEIEGDNIGAQVLGLFTLSTGQDIWEQTNLEHHHHHH
B17: PRT-285 (protein)
chain: MVTSVWTKGVTPPAKFTQGEDVFHAPYDANQGWYDITKTFNGKDDLLCGAATAGNMLHWWFDQNKEKIEAYLKKHPDKQKIMFGDQELLDVRKVINTKGDQTNSELFNYFRDKAFPGLSARRIGVMPDLVLDMFINGYYLNVYKTQTTDVNRTYQEKDRRGGIFDAVFTRGDQSKLLTSRHDFKEKNLKEISDLIKKELTEGKALGLSHTYANVRISHVINLWGADFDSNGNLKAIYVTDSDSNASIGMKKYGVGVNSAGKVAISAKEIKEDNIGAQVLGLFTLSTGQDSWNQTN
B18: PRT-277 (protein)
chain: MVTSVWTKGVTPPTDFIYGEDVLHAPYKAGQGWYDITKLFNGKDNLLCGAATAGNMLHWWFDQNKEQIENYLKKHPEKQKIIFNNQELFDLKAAIDTKDSQLDSKLFEYFLEKAFPNLSTKHLGVFPDHVIDMFINGYRLSLLNHGPTPVKRGSKDKRGGIFDAVFTRGVQSKLLTNRHDLKNKTLKEISDLIKQELTEGKALGISHTYANGRINHVINLWGADFDAEGNLEAIAVTDSDTNASIGMKKYFVGVNSSGKVAISAKEIEEDNIGAQVLGLFTLSTGQDIWNQTN

Biological target: pooled human IgG

| Protein | Enzyme Activity Endpoint Assay: Fab′2 [ng/µL] | Enzyme Activity Endpoint Assay: Fc [ng/µL] | Enzyme Activity Endpoint Assay: IgG [ng/µL] | Enzyme Activity Endpoint Assay: scIgG [ng/µL] |
| --- | --- | --- | --- | --- |
| B1 | 863 | 352 | 0 | 0 |
| B2 | 44 | 112 | 14 | 13 |
| B3 | 46 | 126 | 13 | 15 |
| B4 | 44 | 100 | 23 | 21 |
| B5 | 37 | 95 | 10 | 14 |
| B6 | 26 | 93 | 17 | 44 |
| B7 | 39 | 116 | 9 | 19 |
| B8 | 16 | 89 | 14 | 44 |
| B9 | 48 | 124 | 14 | 17 |
| B10 | 37 | 104 | 9 | 14 |
| B11 | 4 | 79 | 23 | 69 |
| B12 | 46 | 124 | 14 | 15 |
| B13 | 19 | 95 | 27 | 43 |
| B14 | 48 | 123 | 15 | 16 |
| B15 | 3 | 73 | 21 | 65 |
| B16 | 0 | 177 | 508 | 350 |
| B17 | 0 | 0 | 1320 | 0 |
| B18 | 19 | 160 | 401 | 705 |

Source: patent US20250027068
